In paper PMC4456660:

What was measured:
[1] = target: UbcH10~Ub conjugate (UbcH10(C114K)-Avi conjugated with His6-tagged ubiquitin), biotinylated (human) (UniProt O00762); assay: SPR
[2] = target: Ube2S, biotinylated on an N-terminal Avi tag (human) (UniProt Q16763); assay: SPR
Sequence of Ube2S, biotinylated on an N-terminal Avi tag (human) (Q16763 whole entry): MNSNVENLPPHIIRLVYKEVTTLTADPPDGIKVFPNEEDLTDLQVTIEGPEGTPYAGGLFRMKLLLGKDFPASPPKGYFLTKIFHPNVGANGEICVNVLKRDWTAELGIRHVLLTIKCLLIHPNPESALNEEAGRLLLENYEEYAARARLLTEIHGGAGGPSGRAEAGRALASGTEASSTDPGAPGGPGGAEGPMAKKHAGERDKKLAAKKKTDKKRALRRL

Sequence of UbcH10~Ub conjugate (UbcH10(C114K)-Avi conjugated with His6-tagged ubiquitin), biotinylated (human) (O00762 whole entry C114K): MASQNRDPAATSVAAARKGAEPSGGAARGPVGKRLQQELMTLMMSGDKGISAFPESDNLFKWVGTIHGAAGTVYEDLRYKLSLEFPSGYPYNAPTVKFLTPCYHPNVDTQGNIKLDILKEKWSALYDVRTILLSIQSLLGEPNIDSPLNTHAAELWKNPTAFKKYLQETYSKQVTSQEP

| fold higher affinity than apo APC/C [1] [fold] | Kd [2] [nM] | Substance |
| --- | --- | --- |
| 7 | 200 | APC/C^Cdh1.Hsl1 ternary complex (from UniProt Q9H1A4;Q9UJX6;P30260;Q9UJX5;Q9UJX4;Q13042;Q9UJX3;Q9UJX2;Q9UM13;Q9NYG5;Q8NHZ8;Q9BS18;P60006;Q96DE5;Q9UM11;P34244) |
|  | 300 | apo APC/C (from UniProt Q9H1A4;Q9UJX6;P30260;Q9UJX5;Q9UJX4;Q13042;Q9UJX3;Q9UJX2;Q9UM13;Q9NYG5;Q8NHZ8;Q9BS18;P60006;Q96DE5) (complex) |
